According to US20160109449A1 (JULIUS MAXIMILIANS UNIVERSITAET WUERZBURG, published 2016):

Experiments:
[1] = target: T1, IsaA oligopeptide SEQ ID NO: 18 (Staphylococcus aureus); assay: peptide array on glass slide, fluorescent secondary antibody;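 note: binding of a hybridoma-secreted monoclonal antibody to immobilized oligopeptide spots, compared with control antibodies, detected through a fluorescence-labeled secondary antibody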
T1 construct: Synthetic 15-mer of IsaA, spotted on a glass slide
T1 peptide: AHLVDLAHNHQDQLN
Procedure: (§1) Each oligopeptide was immobilized on a small spot on a glass side. Binding of the monoclonal antibodies secreted by the hybridoma cell line DSM ACC2987 and of control antibodies to these spots was examined upon incubation with these antibodies by binding of fluorescence labeled secondary antibodies and detecting fluorescence intensities.

[2] = target: T2, IsaA oligopeptide SEQ ID NO: 19 (Staphylococcus aureus); assay: as above
T2 construct: Synthetic 15-mer of IsaA, spotted on a glass slide
T2 peptide: DLAHNHQDQLNAAPI
Procedure: as §1

[3] = target: T3, IsaA oligopeptide SEQ ID NO: 21 (Staphylococcus aureus); assay: as above
T3 construct: Synthetic 15-mer of IsaA, spotted on a glass slide
T3 peptide: QLNAAPIKDGAYDIH
Procedure: as §1

[4] = target: T4, IsaA oligopeptide SEQ ID NO: 23 (Staphylococcus aureus); assay: as above
T4 construct: Synthetic 15-mer of IsaA, spotted on a glass slide
T4 peptide: DGAYDIHFVKDGFQY
Procedure: as §1

[5] = target: T5, IsaA oligopeptide SEQ ID NO: 33 (Staphylococcus aureus); assay: as above
T5 construct: Synthetic 15-mer of IsaA, spotted on a glass slide
T5 peptide: VAGADYTTSYNQGSD
Procedure: as §1

[6] = target: T6, IsaA oligopeptide SEQ ID NO: 37 (Staphylococcus aureus); assay: as above
T6 construct: Synthetic 15-mer of IsaA, spotted on a glass slide
T6 peptide: QSVSYNAQSSNSNVE
Procedure: as §1

[7] = target: T7, IsaA oligopeptide SEQ ID NO: 39 (Staphylococcus aureus); assay: as above
T7 construct: Synthetic 15-mer of IsaA, spotted on a glass slide
T7 peptide: SSNSNVEAVSAPTYH
Procedure: as §1

[8] = target: T8, IsaA oligopeptide SEQ ID NO: 41 (Staphylococcus aureus); assay: as above
T8 construct: Synthetic 15-mer of IsaA, spotted on a glass slide
T8 peptide: VSAPTYHNYSTSTTS
Procedure: as §1

[9] = target: T9, IsaA oligopeptide SEQ ID NO: 43 (Staphylococcus aureus); assay: as above
T9 construct: Synthetic 15-mer of IsaA, spotted on a glass slide
T9 peptide: YSTSTTSSSVRLSNG
Procedure: as §1

[10] = target: T10, IsaA oligopeptide SEQ ID NO: 44 (Staphylococcus aureus); assay: as above
T10 construct: Synthetic 15-mer of IsaA, spotted on a glass slide
T10 peptide: TTSSSVRLSNGNTAG
Procedure: as §1

[11] = target: T11, IsaA oligopeptide SEQ ID NO: 45 (Staphylococcus aureus); assay: as above
T11 construct: Synthetic 15-mer of IsaA, spotted on a glass slide
T11 peptide: SVRLSNGNTAGATGS
Procedure: as §1

[12] = target: T12, IsaA oligopeptide SEQ ID NO: 47 (Staphylococcus aureus); assay: as above
T12 construct: Synthetic 15-mer of IsaA, spotted on a glass slide
T12 peptide: TAGATGSSAAQIMAQ
Procedure: as §1

[13] = target: T13, IsaA oligopeptide SEQ ID NO: 49 (Staphylococcus aureus); assay: as above
T13 construct: Synthetic 15-mer of IsaA, spotted on a glass slide
T13 peptide: AAQIMAQRTGVSAST
Procedure: as §1

[14] = target: T14, IsaA oligopeptide SEQ ID NO: 50 (Staphylococcus aureus); assay: as above
T14 construct: Synthetic 15-mer of IsaA, spotted on a glass slide
T14 peptide: MAQRTGVSASTWAAI
Procedure: as §1

[15] = target: T15, IsaA oligopeptide SEQ ID NO: 51 (Staphylococcus aureus); assay: as above
T15 construct: Synthetic 15-mer of IsaA, spotted on a glass slide
T15 peptide: TGVSASTWAAIIARE
Procedure: as §1

[16] = target: T16, IsaA oligopeptide SEQ ID NO: 53 (Staphylococcus aureus); assay: as above
T16 construct: Synthetic 15-mer of IsaA, spotted on a glass slide
T16 peptide: AAIIARESNGQVNAY
Procedure: as §1

[17] = target: T17, IsaA oligopeptide SEQ ID NO: 55 (Staphylococcus aureus); assay: as above
T17 construct: Synthetic 15-mer of IsaA, spotted on a glass slide
T17 peptide: NGQVNAYNPSGASGL
Procedure: as §1

[18] = target: T18, IsaA oligopeptide SEQ ID NO: 57 (Staphylococcus aureus); assay: as above
T18 construct: Synthetic 15-mer of IsaA, spotted on a glass slide
T18 peptide: PSGASGLFQTMPGWG
Procedure: as §1

[19] = target: T19, IsaA oligopeptide SEQ ID NO: 58 (Staphylococcus aureus); assay: as above
T19 construct: Synthetic 15-mer of IsaA, spotted on a glass slide
T19 peptide: SGLFQTMPGWGPTNT
Procedure: as §1

[20] = target: T20, IsaA oligopeptide SEQ ID NO: 61 (Staphylococcus aureus); assay: as above
T20 construct: Synthetic 15-mer of IsaA, spotted on a glass slide
T20 peptide: TNTVDQQINAAVKAY
Procedure: as §1

[21] = target: T21, IsaA oligopeptide SEQ ID NO: 62 (Staphylococcus aureus); assay: as above
T21 construct: Synthetic 15-mer of IsaA, spotted on a glass slide
T21 peptide: DQQINAAVKAYKAQG
Procedure: as §1

[22] = target: T22, IsaA oligopeptide SEQ ID NO: 9 (Staphylococcus aureus); assay: as above
T22 construct: Synthetic 15-mer of IsaA, spotted on a glass slide
T22 peptide: MKKTIMASSLAVALG
Procedure: as §1

[23] = target: T23, IsaA oligopeptide SEQ ID NO: 63 (Staphylococcus aureus); assay: as above
T23 construct: Synthetic 15-mer of IsaA, spotted on a glass slide
T23 peptide: NAAVKAYKAQGLGAW
Procedure: as §1

[24] = target: T24, IsaA oligopeptide SEQ ID NO: 64 (Staphylococcus aureus); assay: as above
T24 construct: Synthetic 15-mer of IsaA, spotted on a glass slide
T24 peptide: AVKAYKAQGLGAWGF
Procedure: as §1

[25] = target: T25, IsaA oligopeptide SEQ ID NO: 10 (Staphylococcus aureus); assay: as above
T25 construct: Synthetic 15-mer of IsaA, spotted on a glass slide
T25 peptide: IMASSLAVALGVTGY
Procedure: as §1

[26] = target: T26, IsaA oligopeptide SEQ ID NO: 11 (Staphylococcus aureus); assay: as above
T26 construct: Synthetic 15-mer of IsaA, spotted on a glass slide
T26 peptide: SLAVALGVTGYAAGT
Procedure: as §1

[27] = target: T27, IsaA oligopeptide SEQ ID NO: 12 (Staphylococcus aureus); assay: as above
T27 construct: Synthetic 15-mer of IsaA, spotted on a glass slide
T27 peptide: ALGVTGYAAGTGHQA
Procedure: as §1

[28] = target: T28, recombinant IsaA protein of Staphylococcus aureus (29 kDa immunodominant antigen IsaA) (Staphylococcus aureus, UniProt Q2FV52 30-233, limits assumed); assay: SPR (BIACORE 2000), antibody captured on anti-mouse Fc surface, IsaA as analyte, 1:1 Langmuir fit
T28 construct: Coated as rIsaA in the ELISA; In the first SPR experiment it was N-biotinylated with sulfo-NHS-LC-biotin (mostly at a single site) and immobilised on streptavidin; In the second SPR experiment it was the analyte in solution; also called rIsaA; 29 kDa IsaA antigen
T28 sequence (looked up): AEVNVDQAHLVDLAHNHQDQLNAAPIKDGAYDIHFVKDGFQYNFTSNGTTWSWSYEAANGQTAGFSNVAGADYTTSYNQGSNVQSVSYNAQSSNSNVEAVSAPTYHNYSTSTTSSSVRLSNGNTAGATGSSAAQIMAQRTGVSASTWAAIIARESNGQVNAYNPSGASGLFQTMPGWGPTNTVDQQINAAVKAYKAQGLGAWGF
Procedure: A blank anti mouse Fc surface was used as control surface for monitoring unspecific binding and performing reference subtraction. Interaction analyses were performed using HBS-EP buffer (10 mM HEPES pH 7.4, 150 mM NaCl, 3 mM EDTA, 0.005% Tween 20). Sensorgrams were recorded at a flow rate of 30 μl/min at 25° C. Association and dissociation times were set to 3 and 15 min, respectively.
The anti-Fc capturing surfaces were regenerated after each cycle using short pulses of 10 mM glycine pH 1.7.
Affinities and rate constants for association (kₒₙ) and for dissociation (koff) were calculated using the BIAevaluation software 4.0.1 fitting the obtained sensorgrams to a 1:1 Langmuir binding model.

B1: monoclonal antibody MAB-UK-66 secreted by hybridoma cell line DSM ACC2987 (antibody, V domains shown)
VH: DVKLVESGGGLVKLGGSLKLSCSASGFTFSNYYMSWVRQTPEKRLELVADINGNGGSTYYPDTVKGRFTISRDNAKNTLYLQMSSLKSEDTALYYCVRRGGYYALDYWGQGTTVTVSS
VL: DVVMTQTPLSLPVSLGDQASISCRSSQSLVHINGNTYLHWYLQKPGQSPKLLIYRVSNRFSGVPDRFSGSGSGTDFTLKISRVEAEDLGVYFCSQSTHVPWTFGGGTKLELKR
notes: Monoclonal mouse antibody from a hybridoma; Detected with anti-mouse IgG; also called antibodies secreted by cell line DSM ACC2987; anti-IsaA MAB
In the case of B1, the “Binding (fluorescence intensity)” value [1] is reported as 25300, the “Binding (fluorescence intensity)” value [2] is reported as 31900 and the “Binding (fluorescence intensity)” value [3] is reported as 33300. The “Binding (fluorescence intensity)” value [4] was 63900, the “Binding (fluorescence intensity)” value [5] was 55500 and the “Binding (fluorescence intensity)” value [6] was 139. For the same binder, the “Binding (fluorescence intensity)” value [7] was 491, the “Binding (fluorescence intensity)” value [8] was 421 and the “Binding (fluorescence intensity)” value [9] was 371. The “Binding (fluorescence intensity)” value [10] was 486, the “Binding (fluorescence intensity)” value [11] was 235 and the “Binding (fluorescence intensity)” value [12] was 252. For the same binder, the “Binding (fluorescence intensity)” value [13] was 399, the “Binding (fluorescence intensity)” value [14] was 192 and the “Binding (fluorescence intensity)” value [15] was 139. The “Binding (fluorescence intensity)” value [16] was 577, the “Binding (fluorescence intensity)” value [17] was 1030 and the “Binding (fluorescence intensity)” value [18] was 16800. For the same binder, the “Binding (fluorescence intensity)” value [19] was 1320, the “Binding (fluorescence intensity)” value [20] was 479 and the “Binding (fluorescence intensity)” value [21] was 551. The “Binding (fluorescence intensity)” value [22] was 273, the “Binding (fluorescence intensity)” value [23] was 645 and the “Binding (fluorescence intensity)” value [24] was 379. The “Binding (fluorescence intensity)” value [25] was 228, the “Binding (fluorescence intensity)” value [26] was 101 and the “Binding (fluorescence intensity)” value [27] was 680. For the same binder, the Kd [28] was 1.7 nM, the koff [28] was 0.00029 s⁻¹ and the kon [28] was 180000 M⁻¹ s⁻¹.
